Measured values from the RNAGym collection of RNA variant scans (doi:10.7554/elife.90254).

B1: OR4K15 (parent)
chain: GUUAACGGUCAUAGGCCAUGGAAACUAGGAGCACCAUUUCGCUGCCAGUGAAGAAAUGAACAAAGAAAAUCUGGGCCAGGCAGGCAUCAAAAGAAAUAGUCUUGCGCUCAACCAGAAAGUCUGUAAUCAUUUUAAGGGUA

Variants of: B1
Test: self-cleavage, relative activity (ratio to wild type); higher = more cleavage; in vitro, sequencing; the parent is a self-cleaving ribozyme

**Q.** For C25U U127C, which self-cleavage is on record?
**A.** Its self-cleavage is 0.57.

**Q.** With A27U U120A as the variant, how does the self-cleavage read?
**A.** The self-cleavage was 1.85.

**Q.** For A27G U72C, which self-cleavage is on record?
**A.** The self-cleavage was 0.38.

**Q.** With U26A C81U as the variant, how does the self-cleavage read?
**A.** Its self-cleavage is 0.19.

**Q.** For A24U A51U, which self-cleavage is on record?
**A.** Its self-cleavage is 1.61.

**Q.** Which self-cleavage does the source give for A24U A51G here?
**A.** The self-cleavage was 1.78.

**Q.** Which self-cleavage does the source give for A30G A51G here?
**A.** The self-cleavage was 1.07.

**Q.** With A27C G75C as the variant, how does the self-cleavage read?
**A.** Its self-cleavage is 0.12.

**Q.** For A27G A66G, which self-cleavage is on record?
**A.** The self-cleavage was 0.7.

**Q.** With A30G A52G as the variant, how does the self-cleavage read?
**A.** Its self-cleavage is 1.13.

**Q.** For C25U A59G, which self-cleavage is on record?
**A.** Its self-cleavage is 1.24.

**Q.** Which self-cleavage does the source give for A27U U108C here?
**A.** Its self-cleavage is 0.03.

**Q.** For G28C A64G, which self-cleavage is on record?
**A.** Its self-cleavage is 0.77.

**Q.** With A27G A63G as the variant, how does the self-cleavage read?
**A.** The self-cleavage was 1.49.

**Q.** For U26C A56G, which self-cleavage is on record?
**A.** The self-cleavage was 1.43.

**Q.** With U26A U57G as the variant, how does the self-cleavage read?
**A.** The self-cleavage was 0.97.

**Q.** For A27U U39A, which self-cleavage is on record?
**A.** Its self-cleavage is 1.49.

**Q.** With A27U U39C as the variant, how does the self-cleavage read?
**A.** Its self-cleavage is 0.93.

**Q.** For U26A A54G, which self-cleavage is on record?
**A.** The self-cleavage was 1.95.

**Q.** For A27G A52C, which self-cleavage is on record?
**A.** Its self-cleavage is 1.41.

**Q.** With U26A A91G as the variant, how does the self-cleavage read?
**A.** Its self-cleavage is 1.38.

**Q.** Which self-cleavage does the source give for G29A U87C here?
**A.** The self-cleavage was 1.7.

**Q.** Which self-cleavage does the source give for G29A U87A here?
**A.** Its self-cleavage is 1.79.

**Q.** For A24U A91G, which self-cleavage is on record?
**A.** The self-cleavage was 1.09.

**Q.** For A24G U97C, which self-cleavage is on record?
**A.** The self-cleavage was 0.1.

**Q.** With A27G U130C as the variant, how does the self-cleavage read?
**A.** Its self-cleavage is 0.63.

**Q.** Which self-cleavage does the source give for A27U A86G here?
**A.** The self-cleavage was 1.43.

**Q.** With A27U U87A as the variant, how does the self-cleavage read?
**A.** The self-cleavage was 1.48.

**Q.** Which self-cleavage does the source give for A24U A54G here?
**A.** The self-cleavage was 1.46.

**Q.** With A27G A51G as the variant, how does the self-cleavage read?
**A.** The self-cleavage was 1.3.

**Q.** With U26A C105A as the variant, how does the self-cleavage read?
**A.** The self-cleavage was 0.02.

**Q.** With U26C U131C as the variant, how does the self-cleavage read?
**A.** The self-cleavage was 1.04.

**Q.** For A24G U132C, which self-cleavage is on record?
**A.** The self-cleavage was 1.31.

**Q.** Which self-cleavage does the source give for A24G U132A here?
**A.** Its self-cleavage is 0.48.

**Q.** Which self-cleavage does the source give for U26C A51C here?
**A.** The self-cleavage was 1.55.

**Q.** For U26C A51U, which self-cleavage is on record?
**A.** Its self-cleavage is 1.69.

**Q.** For U26C A90G, which self-cleavage is on record?
**A.** The self-cleavage was 1.11.

**Q.** Which self-cleavage does the source give for A30G A56G here?
**A.** Its self-cleavage is 1.27.

**Q.** Which self-cleavage does the source give for A30G A56U here?
**A.** Its self-cleavage is 1.02.

**Q.** For G29C U127C, which self-cleavage is on record?
**A.** Its self-cleavage is 0.39.

**Q.** With U26C U43C as the variant, how does the self-cleavage read?
**A.** The self-cleavage was 0.54.

**Q.** Which self-cleavage does the source give for G29U A59G here?
**A.** The self-cleavage was 1.31.

**Q.** With A27G A92U as the variant, how does the self-cleavage read?
**A.** Its self-cleavage is 1.07.

**Q.** Which self-cleavage does the source give for A27G A92G here?
**A.** The self-cleavage was 1.48.

**Q.** With C25G A59G as the variant, how does the self-cleavage read?
**A.** Its self-cleavage is 0.57.

**Q.** Which self-cleavage does the source give for A24G U127C here?
**A.** Its self-cleavage is 0.74.

**Q.** With A27G A94G as the variant, how does the self-cleavage read?
**A.** The self-cleavage was 1.48.

**Q.** With U26C A30C as the variant, how does the self-cleavage read?
**A.** The self-cleavage was 0.98.

**Q.** With U26C A30U as the variant, how does the self-cleavage read?
**A.** The self-cleavage was 1.14.

**Q.** Which self-cleavage does the source give for U26A U130C here?
**A.** The self-cleavage was 0.54.

**Q.** For A27U G83A, which self-cleavage is on record?
**A.** Its self-cleavage is 1.31.

**Q.** For A27U A59G, which self-cleavage is on record?
**A.** Its self-cleavage is 0.92.

**Q.** With A27G G79A as the variant, how does the self-cleavage read?
**A.** The self-cleavage was 0.15.

**Q.** Which self-cleavage does the source give for U26A A69G here?
**A.** Its self-cleavage is 1.5.

**Q.** Which self-cleavage does the source give for A27U U132A here?
**A.** Its self-cleavage is 1.42.

**Q.** Which self-cleavage does the source give for C25U A110U here?
**A.** Its self-cleavage is 0.57.

**Q.** With U26C U39A as the variant, how does the self-cleavage read?
**A.** Its self-cleavage is 1.13.

**Q.** Which self-cleavage does the source give for U26A A27G here?
**A.** The self-cleavage was 0.9.

**Q.** With G28A A56G as the variant, how does the self-cleavage read?
**A.** Its self-cleavage is 1.49.

**Q.** Which self-cleavage does the source give for U26A U72A here?
**A.** The self-cleavage was 0.28.

**Q.** Which self-cleavage does the source give for U26A A114G here?
**A.** Its self-cleavage is 0.2.

**Q.** With G29A U103C as the variant, how does the self-cleavage read?
**A.** The self-cleavage was 0.77.

**Q.** With G29A U97C as the variant, how does the self-cleavage read?
**A.** The self-cleavage was 1.22.

**Q.** Which self-cleavage does the source give for A24U U87A here?
**A.** The self-cleavage was 1.8.

**Q.** For U26C A118C, which self-cleavage is on record?
**A.** The self-cleavage was 0.51.

**Q.** With U26C U87C as the variant, how does the self-cleavage read?
**A.** The self-cleavage was 0.37.

**Q.** For G29A A56G, which self-cleavage is on record?
**A.** Its self-cleavage is 1.5.

**Q.** For A27G A60G, which self-cleavage is on record?
**A.** The self-cleavage was 1.09.

**Q.** For G29U U102A, which self-cleavage is on record?
**A.** Its self-cleavage is 1.

**Q.** With C25A U38C as the variant, how does the self-cleavage read?
**A.** Its self-cleavage is 1.05.

**Q.** With C25U A55G as the variant, how does the self-cleavage read?
**A.** Its self-cleavage is 1.72.

**Q.** With U26C C46U as the variant, how does the self-cleavage read?
**A.** Its self-cleavage is 0.81.

**Q.** With A27G U49A as the variant, how does the self-cleavage read?
**A.** Its self-cleavage is 0.93.

**Q.** For A27G U49C, which self-cleavage is on record?
**A.** Its self-cleavage is 2.01.

**Q.** With G29C A91G as the variant, how does the self-cleavage read?
**A.** The self-cleavage was 1.08.

**Q.** With G29U A91G as the variant, how does the self-cleavage read?
**A.** Its self-cleavage is 1.67.

**Q.** Which self-cleavage does the source give for G29A A54G here?
**A.** Its self-cleavage is 1.96.

**Q.** For G29U A90G, which self-cleavage is on record?
**A.** Its self-cleavage is 1.1.

**Q.** For C25U U87C, which self-cleavage is on record?
**A.** Its self-cleavage is 1.11.

**Q.** For A27U A64U, which self-cleavage is on record?
**A.** The self-cleavage was 2.21.

**Q.** For A24U A135U, which self-cleavage is on record?
**A.** Its self-cleavage is 0.83.

**Q.** With G29A U39A as the variant, how does the self-cleavage read?
**A.** The self-cleavage was 1.8.

**Q.** Which self-cleavage does the source give for G29C A96G here?
**A.** The self-cleavage was 1.67.
